B1: PTPLAD1 (parent)
chain: YSFYMLTCIDMDWKVLTWLRYTLW

Variants of: B1
Test: protein stability index of a GFP-peptide fusion (GPS, HEK-293T) (PSI 1-6); higher = more stable
Details: c terminus: a fixed tail appended
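Note: lentivirally expressed fusions sorted by FACS into six bins by GFP to DsRed ratio, PSI derived from sequencing read proportions per bin multiplied by bin number.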

Variant | protein stability index
YSFYMLTCIDMDWYVLTWLRYTLW [K14Y] | 2.61
YSFYMLTCIDMDWHVLTWLRYTLW [K14H] | 2.97
YSFYMLTCIDMDWLVLTWLRYTLW [K14L] | 3.3
YSFYMLTCIDMDWDVLTWLRYTLW [K14D] | 2.16
YSFYMLTCIDMDWTVLTWLRYTLW [K14T] | 3.16
YSFYMLTCIDMDWFVLTWLRYTLW [K14F] | 1.85
YSFYMLTCIDMDWWVLTWLRYTLW [K14W] | 2.45
YSFYMLTCIDMDWQVLTWLRYTLW [K14Q] | 2.03
YSFYMLTCIDMDWIVLTWLRYTLW [K14I] | 2.92
YSFYMLTCIDMDWRVLTWLRYTLW [K14R] | 2.34
YSFYMLTCIDMDWNVLTWLRYTLW [K14N] | 3.02
YSFYMLTCIDMDWPVLTWLRYTLW [K14P] | 3.03
YSFYMLTCIDMDWMVLTWLRYTLW [K14M] | 1.28
YSFYMLTCIDMDAKVLTWLRYTLW [W13A] | 2.71
YSFYMLTCIDMDRKVLTWLRYTLW [W13R] | 2.4
YSFYMLTCIDMDVKVLTWLRYTLW [W13V] | 3.87
YSFYMLTCIDMDHKVLTWLRYTLW [W13H] | 2.36
YSFYMLTCIDMDIKVLTWLRYTLW [W13I] | 3.42
YSFYMLTCIDMDLKVLTWLRYTLW [W13L] | 2.72
YSFYMLTCIDMDKKVLTWLRYTLW [W13K] | 2.71
YSFYMLTCIDMDNKVLTWLRYTLW [W13N] | 4.03
YSFYMLTCIDMDYKVLTWLRYTLW [W13Y] | 4.08
YSFYMLTCIDMDMKVLTWLRYTLW [W13M] | 1.66
YSFYMLTCIDMDFKVLTWLRYTLW [W13F] | 2.73

Variant | protein stability index
YSFYMLTCIDMDPKVLTWLRYTLW [W13P] | 3.04
YSFYMLTCIDMDDKVLTWLRYTLW [W13D] | 1.74
YSFYMLTCIDMDEKVLTWLRYTLW [W13E] | 2.56
YSFYMLTCIDMDGKVLTWLRYTLW [W13G] | 3.3
YSFYMLYCIDMDWKVLTWLRYTLW [T7Y] | 3.62
YSFYMLLCIDMDWKVLTWLRYTLW [T7L] | 2.43
YSFYMLGCIDMDWKVLTWLRYTLW [T7G] | 1.4
YSFYMLACIDMDWKVLTWLRYTLW [T7A] | 2.65
YSFYMLRCIDMDWKVLTWLRYTLW [T7R] | 2.4
YSFYMLECIDMDWKVLTWLRYTLW [T7E] | 3.27
YSFYMLSCIDMDWKVLTWLRYTLW [T7S] | 2.16
YSFYMLFCIDMDWKVLTWLRYTLW [T7F] | 3.29
YSFYMLMCIDMDWKVLTWLRYTLW [T7M] | 2.02
YSFYMLPCIDMDWKVLTWLRYTLW [T7P] | 2.94
YSFYMLQCIDMDWKVLTWLRYTLW [T7Q] | 3.88
YSFYMLVCIDMDWKVLTWLRYTLW [T7V] | 1.27
YSFYMLKCIDMDWKVLTWLRYTLW [T7K] | 2.49
YSFYMLICIDMDWKVLTWLRYTLW [T7I] | 2.86
YSFYMLNCIDMDWKVLTWLRYTLW [T7N] | 2.85
YSFYMLHCIDMDWKVLTWLRYTLW [T7H] | 3.17
YSFYMLDCIDMDWKVLTWLRYTLW [T7D] | 2.73
YSFYMLTCIQMDWKVLTWLRYTLW [D10Q] | 3.51
YSFYMLTCINMDWKVLTWLRYTLW [D10N] | 2.6
YSFYMLTCIAMDWKVLTWLRYTLW [D10A] | 3.85

Variant | protein stability index
YSFYMLTCITMDWKVLTWLRYTLW [D10T] | 2.76
YSFYMLTCIFMDWKVLTWLRYTLW [D10F] | 3.86
YSFYMLTCILMDWKVLTWLRYTLW [D10L] | 1.38
YSFYMLTCIPMDWKVLTWLRYTLW [D10P] | 1.95
YSFYMLTCIVMDWKVLTWLRYTLW [D10V] | 3.62
YSFYMLTCIIMDWKVLTWLRYTLW [D10I] | 2.96
YSFYMLTCIRMDWKVLTWLRYTLW [D10R] | 3.09
YSFYMLTCIGMDWKVLTWLRYTLW [D10G] | 4.97
YSFYMLTCIEMDWKVLTWLRYTLW [D10E] | 2.65
YSFYMLTCMDMDWKVLTWLRYTLW [I9M] | 2.6
YSFYMLTCFDMDWKVLTWLRYTLW [I9F] | 2.17
YSFYMLTCPDMDWKVLTWLRYTLW [I9P] | 2.05
YSFYMLTCQDMDWKVLTWLRYTLW [I9Q] | 2.85
YSFYMLTCGDMDWKVLTWLRYTLW [I9G] | 2.4
YSFYMLTCWDMDWKVLTWLRYTLW [I9W] | 1.96
YSFYMLTCRDMDWKVLTWLRYTLW [I9R] | 2.45
YSFYMLTCCDMDWKVLTWLRYTLW [I9C] | 1.58
YSFYMLTCKDMDWKVLTWLRYTLW [I9K] | 1.66
YSFYMLTCNDMDWKVLTWLRYTLW [I9N] | 2.78
YSFYMLTCHDMDWKVLTWLRYTLW [I9H] | 1.65
YSFYMLTCYDMDWKVLTWLRYTLW [I9Y] | 1.74
YSFYMLTCDDMDWKVLTWLRYTLW [I9D] | 2.78
YSFYMLTCTDMDWKVLTWLRYTLW [I9T] | 1.25
YSFYMLTCADMDWKVLTWLRYTLW [I9A] | 2.07

Variant | protein stability index
YSFYMLTCIDMDWKVITWLRYTLW [L16I] | 1.75
YSFYMLTCIDMDWKVWTWLRYTLW [L16W] | 3.38
YSFYMLTCIDMDWKVPTWLRYTLW [L16P] | 2.32
YSFYMLTCIDMDWKVNTWLRYTLW [L16N] | 4.69
YSFYMLTCIDMDWKVQTWLRYTLW [L16Q] | 2.4
YSFYMLTCIDMDWKVRTWLRYTLW [L16R] | 2.13
YSFYMLTCIDMDWKVATWLRYTLW [L16A] | 3.49
YSFYMLTCIDMDWKVFTWLRYTLW [L16F] | 3.23
YSFYMLTCIDMDWKVETWLRYTLW [L16E] | 2.06
YSFYMLTCIDMDWKVVTWLRYTLW [L16V] | 1.5
YSFYMLTCIDMDWKVYTWLRYTLW [L16Y] | 1.59
YSFYMLTCIDMDWKVDTWLRYTLW [L16D] | 3.41
YSFYMATCIDMDWKVLTWLRYTLW [L6A] | 2.21
YSFYMPTCIDMDWKVLTWLRYTLW [L6P] | 2.45
YSFYMQTCIDMDWKVLTWLRYTLW [L6Q] | 1.31
YSFYMKTCIDMDWKVLTWLRYTLW [L6K] | 1.28
YSFYMTTCIDMDWKVLTWLRYTLW [L6T] | 2.85
YSFYMNTCIDMDWKVLTWLRYTLW [L6N] | 2.48
YSFYMDTCIDMDWKVLTWLRYTLW [L6D] | 2.56
YSFYMYTCIDMDWKVLTWLRYTLW [L6Y] | 3.68
YSFYMHTCIDMDWKVLTWLRYTLW [L6H] | 3.22
YSFYMFTCIDMDWKVLTWLRYTLW [L6F] | 2.33

Source: the supplement of paper PMC10567573
